Molecular target: APB-R3, long-acting recombinant human IL-18BP linked to the human albumin-binding Fab fragment SL335 (human)
Test: SPR

- Kd: 0.0609 nM
Substance: human IL-18 (from UniProt Q14116 37-193) (ligand)

Source: paper doi:10.1101/2023.05.30.542831
